Results as given in patent publication US20150344570A1 (published 2015).
Substitutions are numbered along the chain they refer to. Numbers in names are those of the source.

T1: FcgRIIb (FcγRIIb) extracellular domain with C-terminal His tag (human, UniProt P31994 43-217)
T1 construct: extracellular domain; not shown: His tag attached to the C terminus
T1 sequence (looked up): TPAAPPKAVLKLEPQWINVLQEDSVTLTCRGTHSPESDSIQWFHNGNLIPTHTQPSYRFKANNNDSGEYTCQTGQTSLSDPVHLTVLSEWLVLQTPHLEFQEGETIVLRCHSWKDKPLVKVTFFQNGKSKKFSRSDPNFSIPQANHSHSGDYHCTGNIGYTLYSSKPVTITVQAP

T2: FcgRIIa R (FcγRIIa type R) extracellular domain with C-terminal His tag (human, UniProt P12318 34-217)
T2 construct: extracellular domain; also called FcγRIIa R; not shown: His tag attached to the C terminus
T2 sequence (looked up): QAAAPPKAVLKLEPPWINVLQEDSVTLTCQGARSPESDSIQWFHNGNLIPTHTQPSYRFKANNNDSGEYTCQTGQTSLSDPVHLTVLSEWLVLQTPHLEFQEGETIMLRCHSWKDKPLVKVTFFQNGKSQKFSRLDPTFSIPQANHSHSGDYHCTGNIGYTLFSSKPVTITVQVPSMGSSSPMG

T3: FcgRIIa H (FcγRIIa type H) extracellular domain with C-terminal His tag (human, UniProt P12318 34-217)
T3 construct: extracellular domain; also called FcγRIIa H; not shown: His tag attached to the C terminus
T3 sequence (looked up): T2 sequence (looked up) with R134H

B1: H240-Kn061/H240-Hl071/L73-k0 variant with Y235A in H240-Kn061 (antibody, human IgG1, kappa)
heavy 1: QDQLVQSGAEVKKPGASVKVSCKASGFNIKDTYIQWVRQAPGQGLEWMGRIDPLRKQTKYREKFEGRVTITADTSTNTAYMELSSLRSEDTAVYYCVRSGREFDYWGQGTLVTVSSASTKGPSVFPLAPSSKSTSGGTAALGCLVKDYFPEPVTVSWNSGALTSGVHTFPAVLQSSGLYSLSSVVTVPSSSLGTQTYICNVNHKPSNTKVDKKVEPKSCDKTHTCPPCPAPEYAWGPSVFLFPPKPKDTLMISRTPEVTCVVVDVSDEDPEVKFNWYVDGVEVHNAKTKPREEQYNATYRVVSVLTVLHQDWLNGKEYKCKVSNKALPAPIEKTISKAKGQPREPQVCTLPPSRDELTKNQVSLWCLVKGFYPSDIAVEWESNGQPENNYKTTPPVLDSDGSFFLYSKLTVDKSRWQQGNVFSCSVMHEALHNHYTQKSLSLSP
heavy 2: QDQLVQSGAEVKKPGASVKVSCKASGFNIKDTYIQWVRQAPGQGLEWMGRIDPLRKQTKYREKFEGRVTITADTSTNTAYMELSSLRSEDTAVYYCVRSGREFDYWGQGTLVTVSSASTKGPSVFPLAPSSKSTSGGTAALGCLVKDYFPEPVTVSWNSGALTSGVHTFPAVLQSSGLYSLSSVVTVPSSSLGTQTYICNVNHKPSNTKVDKKVEPKSCDKTHTCPPCPAPELLGGPSVFLFPPKPKDTLMISRTPEVTCVVVDVSHEDPEVKFNWYVDGVEVHNAKTKPREEQYNSTYRVVSVLTVLHQDWLNGKEYKCKVSNDALPMPIEETISKAKGQPREPQVYTLPPSRCELTKNQVSLSCAVKGFYPSDIAVEWESNGQPENNYKTTPPVLDSDGSFFLVSKLTVDKSRWQQGNVFSCSVMHEALHNHYTQKSLSLSP
light: DIQMTQSPSSLSASVGDRVTITCRASQDIHKYIAWYQQKPGQAPRLLIQYTSTLQPGVPSRFSGSGSGTDYTFTISSLQPEDIATYYCLQYEQLRTFGGGTKVEIKRTVAAPSVFIFPPSDEQLKSGTASVVCLLNNFYPREAKVQWKVDNALQSGNSQESVTEQDSKDSTYSLSSTLTLSKADYEKHKVYACEVTHQGLSSPVTKSFNRGEC
notes: anti-epiregulin heterodimerized IgG1; also called H240-Kn061 Y235A
B2: H240-Kn061/H240-Hl071/L73-k0 variant with S239M in H240-Kn061 (antibody, human IgG1, kappa)
heavy 1: B1 heavy 1 with A234Y, S238M
heavy 2: B1 heavy 2
light: B1 light
notes: anti-epiregulin heterodimerized IgG1; also called H240-Kn061 S239M
B3: H240-Kn061/H240-Hl071/L73-k0 variant with F241N in H240-Hl071 (antibody, human IgG1, kappa)
heavy 1: B1 heavy 1 with A234Y
heavy 2: B1 heavy 2 with F240N
light: B1 light
notes: anti-epiregulin heterodimerized IgG1; also called H240-Hl071 F241N
B4: H240-Kn061/H240-Hl071/L73-k0 variant with S239L in H240-Kn061 (antibody, human IgG1, kappa)
heavy 1: B1 heavy 1 with A234Y, S238L
heavy 2: B1 heavy 2
light: B1 light
notes: anti-epiregulin heterodimerized IgG1; also called H240-Kn061 S239L
B5: H240-Kn061/H240-Hl071/L73-k0 variant with S239I in H240-Kn061 (antibody, human IgG1, kappa)
heavy 1: B1 heavy 1 with A234Y, S238I
heavy 2: B1 heavy 2
light: B1 light
notes: anti-epiregulin heterodimerized IgG1; also called H240-Kn061 S239I
B6: H240-Kn061/H240-Hl071/L73-k0 variant with A231Q in H240-Kn061 (antibody, human IgG1, kappa)
heavy 1: B1 heavy 1 with A230Q, A234Y
heavy 2: B1 heavy 2
light: B1 light
notes: anti-epiregulin heterodimerized IgG1; also called H240-Kn061 A231Q
B7: H240-Kn061/H240-Hl071/L73-k0 variant with V240H in H240-Hl071 (antibody, human IgG1, kappa)
heavy 1: B1 heavy 1 with A234Y
heavy 2: B1 heavy 2 with V239H
light: B1 light
notes: anti-epiregulin heterodimerized IgG1; also called H240-Hl071 V240H
B8: H240-Kn061/H240-Hl071/L73-k0 variant with Y234I in H240-Kn061 (antibody, human IgG1, kappa)
heavy 1: B1 heavy 1 with Y233I, A234Y
heavy 2: B1 heavy 2
light: B1 light
notes: anti-epiregulin heterodimerized IgG1; also called H240-Kn061 Y234I
B9: H240-Kn061/H240-Hl071/L73-k0 variant with A231V in H240-Kn061 (antibody, human IgG1, kappa)
heavy 1: B1 heavy 1 with A230V, A234Y
heavy 2: B1 heavy 2
light: B1 light
notes: anti-epiregulin heterodimerized IgG1; also called H240-Kn061 A231V
B10: H240-Kn061/H240-Hl071/L73-k0 variant with S239V in H240-Kn061 (antibody, human IgG1, kappa)
heavy 1: B1 heavy 1 with A234Y, S238V
heavy 2: B1 heavy 2
light: B1 light
notes: anti-epiregulin heterodimerized IgG1; also called H240-Kn061 S239V
B11: H240-Kn061/H240-Hl071/L73-k0 variant with Y234L in H240-Kn061 (antibody, human IgG1, kappa)
heavy 1: B1 heavy 1 with Y233L, A234Y
heavy 2: B1 heavy 2
light: B1 light
notes: anti-epiregulin heterodimerized IgG1; also called H240-Kn061 Y234L
B12: H240-Kn061/H240-Hl071/L73-k0 variant with A231E in H240-Kn061 (antibody, human IgG1, kappa)
heavy 1: B1 heavy 1 with A230E, A234Y
heavy 2: B1 heavy 2
light: B1 light
notes: anti-epiregulin heterodimerized IgG1; also called H240-Kn061 A231E
B13: H240-Kn061/H240-Hl071/L73-k0 variant with Y235W in H240-Kn061 (antibody, human IgG1, kappa)
heavy 1: B1 heavy 1 with A234W
heavy 2: B1 heavy 2
light: B1 light
notes: anti-epiregulin heterodimerized IgG1; also called H240-Kn061 Y235W
B14: H240-Kn061/H240-Hl071/L73-k0 variant with Y235T in H240-Kn061 (antibody, human IgG1, kappa)
heavy 1: B1 heavy 1 with A234T
heavy 2: B1 heavy 2
light: B1 light
notes: anti-epiregulin heterodimerized IgG1; also called H240-Kn061 Y235T

These binders were tested against T4, FcgRIIIa V (FcγRIIIa type V) extracellular domain with C-terminal His tag (human, UniProt P08637 17-208) (assay: SPR (Biacore); KD of H240-Kn061/H240-Hl071/L73-k0 divided by KD of the variant).
T4 construct: extracellular domain; also called FcγRIIIa V; not shown: His tag attached to the C terminus
Procedure: (§1) The antibodies were assessed for the binding to each FcgR. […] The resultant value was defined as relative KD, and used as an assessment indicator.
(§2) Analysis of interaction between objective antibody and the FcγR was carried out using Biacore T100 (GE Healthcare), Biacore T200, Biacore A100, and Biacore 4000. HBS-EP+ (GE Healthcare) was used as the running buffer, and the measurement temperature was set to 25° C. Chips produced by immobilizing the antigen peptide by the amine coupling method to a Series S sensor Chip CM5 (GE Healthcare), chips produced by allowing preliminarily biotinylated antigen peptides to interact with and immobilize onto a Series S Sensor Chip SA (certified) (GE Healthcare), chips produced by immobilizing Protein L (ACTIGEN, BioVision) to Series S Sencor Chip CM5 (GE Healthcare), or chips produced by immobilizing Protein A/G (Thermo Scientific) to Series S Sencor Chip CM5 (GE Healthcare) were used. Antibodies of interest were captured onto these chips, and allowed to interact to each FcγR diluted with running buffer.

T4 sequence (P08637 17-208 F176V limits assumed): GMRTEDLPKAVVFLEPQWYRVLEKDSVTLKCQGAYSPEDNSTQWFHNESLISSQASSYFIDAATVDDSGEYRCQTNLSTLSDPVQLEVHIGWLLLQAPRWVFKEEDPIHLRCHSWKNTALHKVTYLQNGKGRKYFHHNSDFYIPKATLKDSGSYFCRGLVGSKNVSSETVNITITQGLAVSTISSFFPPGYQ

relative KD | Binder
1.3 ratio | B1
2.8 ratio | B2
0.7 ratio | B3
3.7 ratio | B4
3.4 ratio | B5
1.7 ratio | B6
1 ratio | B7
1.3 ratio | B8
1.5 ratio | B9
2.9 ratio | B10
1.2 ratio | B11
2 ratio | B12

What follows are binders tested against T1, FcgRIIb (FcγRIIb) extracellular domain … in the same assay as above.
Procedure: as §1, §2

relative KD | Binder
0.2 ratio | B1
2.2 ratio | B2
1.1 ratio | B3
3.4 ratio | B4
3.1 ratio | B5
1.4 ratio | B6
0.3 ratio | B7
7.7 ratio | B8
1.6 ratio | B9
3.4 ratio | B10
3.5 ratio | B11
1.4 ratio | B12

Each binder was assayed against T2, FcgRIIa R (FcγRIIa type R) … in the same assay as above.
Procedure: as §1, §2

relative KD | Binder
0.5 ratio | B1
3.2 ratio | B2
3.8 ratio | B3
4.8 ratio | B4
4.4 ratio | B5
1.5 ratio | B6
0.7 ratio | B7
4.1 ratio | B8
1.6 ratio | B9
4.2 ratio | B10
2.2 ratio | B11
1.7 ratio | B12

What follows are binders tested against T5, FcgRIIIa F (FcγRIIIa type F) extracellular domain with C-terminal His tag (human, UniProt P08637 17-208) in the same assay as above.
T5 construct: extracellular domain; also called FcγRIIIa F; 3aF; not shown: His tag attached to the C terminus
Procedure: as §1, §2

T5 sequence (P08637 17-208): as the sequence (P08637 17-208 F176V limits assumed) above, with V160F counted along it

relative KD | Binder
1.2 ratio | B1
2.2 ratio | B2
0.8 ratio | B3
3.4 ratio | B4
3 ratio | B5
1.5 ratio | B6
1.3 ratio | B7
1.2 ratio | B8
1.3 ratio | B9
2.4 ratio | B10
1.1 ratio | B11
1.8 ratio | B12

The binders below were run against T3, FcgRIIa H (FcγRIIa type H) … in the same assay as above.
Procedure: as §1, §2

relative KD | Binder
0.5 ratio | B1
2 ratio | B2
3.5 ratio | B3
2.4 ratio | B4
2.1 ratio | B5
1.5 ratio | B6
0.8 ratio | B7
2.6 ratio | B8
1.6 ratio | B9
2.4 ratio | B10
1.5 ratio | B11
1.6 ratio | B12

Molecular target: T4, FcgRIIIa V (FcγRIIIa type V) …
Assay: as above
Remark: another data set of the same source
Procedure: as §1, §2

relative KD | Binder
1.3 ratio | B1
1.3 ratio | B13
1.1 ratio | B14

Molecular target: T1, FcgRIIb (FcγRIIb) extracellular domain …
Assay: as above
Remark: another data set of the same source
Procedure: as §1, §2

relative KD | Binder
0.2 ratio | B1
1.3 ratio | B13
0.6 ratio | B14

Molecular target: T5, FcgRIIIa F (FcγRIIIa type F) …
Assay: as above
Remark: another data set of the same source
Procedure: as §1, §2

relative KD | Binder
1.2 ratio | B1
1.1 ratio | B13
0.9 ratio | B14
